In publication PMC4359790 one finds response (change in wavelength) data, which are given here for three substances.

The assay has as its target bovine fetuin (bovine) (UniProt P12763). The assay can be described thus: Corning Epic label-free (resonant waveguide grating, Enspire reader).
As for “recombinant hemagglutinin (rHA) of A/Brisbane/59/2007 (H1N1) (natural protein; modification not given)”, the response (change in wavelength) at 20 μg/ml rHA stood at 80 pm.

The substance “recombinant hemagglutinin (rHA) of B/Brisbane/60/2008 (natural protein)” returned a response (change in wavelength) at 20 μg/ml rHA of 140 pm.

In turn, “recombinant hemagglutinin (rHA) of A/Hangzhou/3/2013 (H7N9) (natural protein)” had a response (change in wavelength) at 20 μg/ml rHA of 80 pm.
